Data from PMC13189363.
Several values for one entry are separate records, joined by “and”; a condition that tells them apart may be missing. Identical values can stand only once.

Columns and labels:
[1] = target: HerA from Bacillus ap. HMH5848 (Bacillus ap. HMH5848); experiment: cryo-EM structure
[2] = target: DUF4297 from Bacillus ap. HMH5848 (Bacillus ap. HMH5848); experiment: mass photometry
[3] = target: DUF4297 from Bacillus ap. HMH5848 (Bacillus ap. HMH5848); experiment: cryo-EM structure

stoichiometry N [1] | stoichiometry N [2] | stoichiometry N [3] | Substance
6 | – | – | HerA from Bacillus ap. HMH5848 (enzyme)
– | 6 and 12 and 14 | 12 and 4 and 6 | DUF4297 from Bacillus ap. HMH5848 (enzyme)
